Test results: patent US20150344570A1 (published 2015)
Read-outs that look alike come from different tables or passages of the source.

T1: FcgRIIa H (FcγRIIa type H) extracellular domain with C-terminal His tag (human, UniProt P12318 34-217)
T1 construct: extracellular domain; also called FcγRIIa H; not shown: His tag attached to the C terminus
T1 sequence (looked up): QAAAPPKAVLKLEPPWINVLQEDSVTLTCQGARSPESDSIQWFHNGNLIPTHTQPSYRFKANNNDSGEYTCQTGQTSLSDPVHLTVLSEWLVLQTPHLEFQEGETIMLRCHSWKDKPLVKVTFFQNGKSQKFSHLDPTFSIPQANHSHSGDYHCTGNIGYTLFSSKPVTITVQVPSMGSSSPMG

T2: FcgRIIb (FcγRIIb) extracellular domain with C-terminal His tag (human, UniProt P31994 43-217)
T2 construct: extracellular domain; not shown: His tag attached to the C terminus
T2 sequence (looked up): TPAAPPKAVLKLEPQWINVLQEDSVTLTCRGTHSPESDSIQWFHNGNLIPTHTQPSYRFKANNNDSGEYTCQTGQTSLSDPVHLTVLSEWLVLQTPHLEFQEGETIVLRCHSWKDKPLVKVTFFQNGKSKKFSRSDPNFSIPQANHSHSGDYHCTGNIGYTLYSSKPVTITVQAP

T3: FcgRIIa R (FcγRIIa type R) extracellular domain with C-terminal His tag (human, UniProt P12318 34-217)
T3 construct: extracellular domain; also called FcγRIIa R; not shown: His tag attached to the C terminus
T3 sequence (looked up): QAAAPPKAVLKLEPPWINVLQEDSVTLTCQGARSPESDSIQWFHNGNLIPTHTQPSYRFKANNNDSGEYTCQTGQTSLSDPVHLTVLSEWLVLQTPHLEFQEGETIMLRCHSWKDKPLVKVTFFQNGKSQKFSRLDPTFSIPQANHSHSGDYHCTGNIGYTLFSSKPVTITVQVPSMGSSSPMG

B1: H240-Kn061/H240-Hl071/L73-k0 variant with Y235P in H240-Kn061 (antibody, human IgG1, kappa)
heavy 1: QDQLVQSGAEVKKPGASVKVSCKASGFNIKDTYIQWVRQAPGQGLEWMGRIDPLRKQTKYREKFEGRVTITADTSTNTAYMELSSLRSEDTAVYYCVRSGREFDYWGQGTLVTVSSASTKGPSVFPLAPSSKSTSGGTAALGCLVKDYFPEPVTVSWNSGALTSGVHTFPAVLQSSGLYSLSSVVTVPSSSLGTQTYICNVNHKPSNTKVDKKVEPKSCDKTHTCPPCPAPEYPWGPSVFLFPPKPKDTLMISRTPEVTCVVVDVSDEDPEVKFNWYVDGVEVHNAKTKPREEQYNATYRVVSVLTVLHQDWLNGKEYKCKVSNKALPAPIEKTISKAKGQPREPQVCTLPPSRDELTKNQVSLWCLVKGFYPSDIAVEWESNGQPENNYKTTPPVLDSDGSFFLYSKLTVDKSRWQQGNVFSCSVMHEALHNHYTQKSLSLSP
heavy 2: QDQLVQSGAEVKKPGASVKVSCKASGFNIKDTYIQWVRQAPGQGLEWMGRIDPLRKQTKYREKFEGRVTITADTSTNTAYMELSSLRSEDTAVYYCVRSGREFDYWGQGTLVTVSSASTKGPSVFPLAPSSKSTSGGTAALGCLVKDYFPEPVTVSWNSGALTSGVHTFPAVLQSSGLYSLSSVVTVPSSSLGTQTYICNVNHKPSNTKVDKKVEPKSCDKTHTCPPCPAPELLGGPSVFLFPPKPKDTLMISRTPEVTCVVVDVSHEDPEVKFNWYVDGVEVHNAKTKPREEQYNSTYRVVSVLTVLHQDWLNGKEYKCKVSNDALPMPIEETISKAKGQPREPQVYTLPPSRCELTKNQVSLSCAVKGFYPSDIAVEWESNGQPENNYKTTPPVLDSDGSFFLVSKLTVDKSRWQQGNVFSCSVMHEALHNHYTQKSLSLSP
light: DIQMTQSPSSLSASVGDRVTITCRASQDIHKYIAWYQQKPGQAPRLLIQYTSTLQPGVPSRFSGSGSGTDYTFTISSLQPEDIATYYCLQYEQLRTFGGGTKVEIKRTVAAPSVFIFPPSDEQLKSGTASVVCLLNNFYPREAKVQWKVDNALQSGNSQESVTEQDSKDSTYSLSSTLTLSKADYEKHKVYACEVTHQGLSSPVTKSFNRGEC
notes: anti-epiregulin heterodimerized IgG1; also called H240-Kn061 Y235P
B2: H240-Kn061/H240-Hl071/L73-k0 variant with Y235Q in H240-Kn061 (antibody, human IgG1, kappa)
heavy 1: QDQLVQSGAEVKKPGASVKVSCKASGFNIKDTYIQWVRQAPGQGLEWMGRIDPLRKQTKYREKFEGRVTITADTSTNTAYMELSSLRSEDTAVYYCVRSGREFDYWGQGTLVTVSSASTKGPSVFPLAPSSKSTSGGTAALGCLVKDYFPEPVTVSWNSGALTSGVHTFPAVLQSSGLYSLSSVVTVPSSSLGTQTYICNVNHKPSNTKVDKKVEPKSCDKTHTCPPCPAPEYQWGPSVFLFPPKPKDTLMISRTPEVTCVVVDVSDEDPEVKFNWYVDGVEVHNAKTKPREEQYNATYRVVSVLTVLHQDWLNGKEYKCKVSNKALPAPIEKTISKAKGQPREPQVCTLPPSRDELTKNQVSLWCLVKGFYPSDIAVEWESNGQPENNYKTTPPVLDSDGSFFLYSKLTVDKSRWQQGNVFSCSVMHEALHNHYTQKSLSLSP
heavy 2: QDQLVQSGAEVKKPGASVKVSCKASGFNIKDTYIQWVRQAPGQGLEWMGRIDPLRKQTKYREKFEGRVTITADTSTNTAYMELSSLRSEDTAVYYCVRSGREFDYWGQGTLVTVSSASTKGPSVFPLAPSSKSTSGGTAALGCLVKDYFPEPVTVSWNSGALTSGVHTFPAVLQSSGLYSLSSVVTVPSSSLGTQTYICNVNHKPSNTKVDKKVEPKSCDKTHTCPPCPAPELLGGPSVFLFPPKPKDTLMISRTPEVTCVVVDVSHEDPEVKFNWYVDGVEVHNAKTKPREEQYNSTYRVVSVLTVLHQDWLNGKEYKCKVSNDALPMPIEETISKAKGQPREPQVYTLPPSRCELTKNQVSLSCAVKGFYPSDIAVEWESNGQPENNYKTTPPVLDSDGSFFLVSKLTVDKSRWQQGNVFSCSVMHEALHNHYTQKSLSLSP
light: DIQMTQSPSSLSASVGDRVTITCRASQDIHKYIAWYQQKPGQAPRLLIQYTSTLQPGVPSRFSGSGSGTDYTFTISSLQPEDIATYYCLQYEQLRTFGGGTKVEIKRTVAAPSVFIFPPSDEQLKSGTASVVCLLNNFYPREAKVQWKVDNALQSGNSQESVTEQDSKDSTYSLSSTLTLSKADYEKHKVYACEVTHQGLSSPVTKSFNRGEC
notes: anti-epiregulin heterodimerized IgG1; also called H240-Kn061 Y235Q
B3: H240-Kn061/H240-Hl071/L73-k0 variant with Y235V in H240-Kn061 (antibody, human IgG1, kappa)
heavy 1: QDQLVQSGAEVKKPGASVKVSCKASGFNIKDTYIQWVRQAPGQGLEWMGRIDPLRKQTKYREKFEGRVTITADTSTNTAYMELSSLRSEDTAVYYCVRSGREFDYWGQGTLVTVSSASTKGPSVFPLAPSSKSTSGGTAALGCLVKDYFPEPVTVSWNSGALTSGVHTFPAVLQSSGLYSLSSVVTVPSSSLGTQTYICNVNHKPSNTKVDKKVEPKSCDKTHTCPPCPAPEYVWGPSVFLFPPKPKDTLMISRTPEVTCVVVDVSDEDPEVKFNWYVDGVEVHNAKTKPREEQYNATYRVVSVLTVLHQDWLNGKEYKCKVSNKALPAPIEKTISKAKGQPREPQVCTLPPSRDELTKNQVSLWCLVKGFYPSDIAVEWESNGQPENNYKTTPPVLDSDGSFFLYSKLTVDKSRWQQGNVFSCSVMHEALHNHYTQKSLSLSP
heavy 2: QDQLVQSGAEVKKPGASVKVSCKASGFNIKDTYIQWVRQAPGQGLEWMGRIDPLRKQTKYREKFEGRVTITADTSTNTAYMELSSLRSEDTAVYYCVRSGREFDYWGQGTLVTVSSASTKGPSVFPLAPSSKSTSGGTAALGCLVKDYFPEPVTVSWNSGALTSGVHTFPAVLQSSGLYSLSSVVTVPSSSLGTQTYICNVNHKPSNTKVDKKVEPKSCDKTHTCPPCPAPELLGGPSVFLFPPKPKDTLMISRTPEVTCVVVDVSHEDPEVKFNWYVDGVEVHNAKTKPREEQYNSTYRVVSVLTVLHQDWLNGKEYKCKVSNDALPMPIEETISKAKGQPREPQVYTLPPSRCELTKNQVSLSCAVKGFYPSDIAVEWESNGQPENNYKTTPPVLDSDGSFFLVSKLTVDKSRWQQGNVFSCSVMHEALHNHYTQKSLSLSP
light: DIQMTQSPSSLSASVGDRVTITCRASQDIHKYIAWYQQKPGQAPRLLIQYTSTLQPGVPSRFSGSGSGTDYTFTISSLQPEDIATYYCLQYEQLRTFGGGTKVEIKRTVAAPSVFIFPPSDEQLKSGTASVVCLLNNFYPREAKVQWKVDNALQSGNSQESVTEQDSKDSTYSLSSTLTLSKADYEKHKVYACEVTHQGLSSPVTKSFNRGEC
notes: anti-epiregulin heterodimerized IgG1; also called H240-Kn061 Y235V

Experiments:
Experiment in all cases: SPR (Biacore); KD of H240-Kn061/H240-Hl071/L73-k0 divided by KD of the variant
[1] = biological target: T4, FcgRIIIa V (FcγRIIIa type V) extracellular domain with C-terminal His tag (human, UniProt P08637 17-208)
T4 construct: extracellular domain; also called FcγRIIIa V; not shown: His tag attached to the C terminus
Description: (§1) The antibodies were assessed for the binding to each FcgR. […] The resultant value was defined as relative KD, and used as an assessment indicator.
(§2) Analysis of interaction between objective antibody and the FcγR was carried out using Biacore T100 (GE Healthcare), Biacore T200, Biacore A100, and Biacore 4000. HBS-EP+ (GE Healthcare) was used as the running buffer, and the measurement temperature was set to 25° C. Chips produced by immobilizing the antigen peptide by the amine coupling method to a Series S sensor Chip CM5 (GE Healthcare), chips produced by allowing preliminarily biotinylated antigen peptides to interact with and immobilize onto a Series S Sensor Chip SA (certified) (GE Healthcare), chips produced by immobilizing Protein L (ACTIGEN, BioVision) to Series S Sencor Chip CM5 (GE Healthcare), or chips produced by immobilizing Protein A/G (Thermo Scientific) to Series S Sencor Chip CM5 (GE Healthcare) were used. Antibodies of interest were captured onto these chips, and allowed to interact to each FcγR diluted with running buffer.

[2] = biological target: T1, FcgRIIa H (FcγRIIa type H) …
Description: as §1, §2

[3] = biological target: T2, FcgRIIb (FcγRIIb) extracellular domain …
Description: as §1, §2

[4] = biological target: T5, FcgRIIIa F (FcγRIIIa type F) extracellular domain with C-terminal His tag (human, UniProt P08637 17-208)
T5 construct: extracellular domain; also called FcγRIIIa F; 3aF; not shown: His tag attached to the C terminus
Description: as §1, §2

[5] = biological target: T3, FcgRIIa R (FcγRIIa type R) …
Description: as §1, §2

[6] = biological target: T4, FcgRIIIa V (FcγRIIIa type V) …; remark: listed apart in the source
[7] = biological target: T2, FcgRIIb (FcγRIIb) extracellular domain …; remark: listed apart in the source
[8] = biological target: T5, FcgRIIIa F (FcγRIIIa type F) …; remark: listed apart in the source

T5 sequence (P08637 17-208): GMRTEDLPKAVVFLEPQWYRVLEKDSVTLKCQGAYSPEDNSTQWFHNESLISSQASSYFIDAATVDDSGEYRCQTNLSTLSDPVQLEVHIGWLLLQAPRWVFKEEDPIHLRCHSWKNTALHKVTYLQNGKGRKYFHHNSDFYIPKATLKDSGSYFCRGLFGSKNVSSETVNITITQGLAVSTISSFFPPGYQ
T4 sequence (P08637 17-208 F176V limits assumed): as the sequence (P08637 17-208) above, with F160V counted along it

Row | Binder | relative KD [1] [ratio] | relative KD [2] [ratio] | relative KD [3] [ratio] | relative KD [4] [ratio] | relative KD [5] [ratio] | relative KD [6] [ratio] | relative KD [7] [ratio] | relative KD [8] [ratio]
1 | B1 | 1.5 | 0.4 | 0.5 | 1.1 | 0.6 | 1.5 | 0.5 | 1.1
2 | B2 | 1.3 | 0.4 | 0.1 | 1 | 0.8 | 1.3 | 0.1 | 1
3 | B3 | 1.3 | 0.4 | 0.2 | 1.2 | 0.5 | 1.3 | 0.2 | 1.2
